From US7329737 (DYAX, dated 2008)

Columns and labels:
[1] = biological target: T1, hK1 (human tissue kallikrein 1), recombinant (human, UniProt P06870 25-262); assay: SPR
T1 construct: Expressed in P. pastoris from KLK1 cDNA and purified; enzymatically active; also called KLK1; Recombinant (Pichia) Kallikrein

[2] = biological target: T1, hK1 (human tissue kallikrein 1), …; assay: cell-based or functional assay

Binder | Kd [1] | koff [1] | kon [1] | IC50 (nM), inhibition of hK1 hydrolysis of Pro-Phe-Arg-AMC [2] | IC50 (nM), inhibition of hK1 enzyme activity [2]
M0139-F04 (Fab, V domains shown) VH: EVQLLESGGGLVQPGGSLRLSCAASGFTFSRYYMEWVRQAPGKGLEWVSSISSSGGSTEYADSVKGRFTISRDNSKNTLYLQMNSLRAEDTAVYYCAKDITPGGGSGFRLPKNYYYYGMDVWGQGTTVTVSS VL: DIQMTQSPSSLSASVGDRVTITCRASQAISTNLNWYQQKPGKAPKLLIYAASSLQSGVPSRFIGSGSGTDFTLTISSLHPEDFATYHCQQTFSPPHTFGQGTKVEIQR | 7.27 nM | 0.00134 s⁻¹ | 184000 M⁻¹ s⁻¹ | 20.7 nM | –
M0133-E02 (Fab, V domains shown) VH: EVQLLESGGGLVQPGGSLRLSCAASGFTFSWYTMTWVRQAPGKGLEWVSSIYPSGGHTSYADSVKGRFTISRDNSKNTLYLQMNSLRAEDTAVYYCAKDTRVGPWLVRAPLDYWGQGTLVTVSS VL: not shown | 6.42 nM | 0.00146 s⁻¹ | 227000 M⁻¹ s⁻¹ | 2.4 nM | –
M0138-G11 (Fab, V domains shown) VH: EVQLLESGGGLVQPGGSLRLSCAASGFTFSWYTMTWVRQAPGKGLEWVSSIYPSGGHTSYADSVKGRFTISRDNSKNTFYLQMNSLRAEDTAVYYCAKDTRVGPWLVRAPLDYWGQGTLVTVSS VL: not shown | 6.19 nM | 0.00161 s⁻¹ | 260000 M⁻¹ s⁻¹ | – | 28 nM
M0097-G01 (Fab, V domains shown) VH: EVQLLESGGGLVQPGGSLRLSCAASGFTFSPYYMQWVRQAPGKGLEWVSGISSSGGSTQYADSVKGRFTISRDNSKNTLYLQMNSLRAEDTAVYYCARSQRRTYYPNFGDAFDIWGQGTMVTVSS VL: DIQMTQSPSSLSASVGDRVTITCRASQGIGNYLVWYQHKPGNVPRVLIYAASTLQSGVPSRFRGSGSGTDFTLTISGLQPEDVATYYCQKYDGAPFTFGPGTKVDLKR | 4.8 nM | 0.000832 s⁻¹ | 173000 M⁻¹ s⁻¹ | 7.2 nM | –
M0138-C09 (Fab, V domains shown) VH: EVQLLESGGGLVQPGGSLRLSCAASGFTFSPYRMSWVRQAPGKGLEWVSVISPSGGITEYADSVKGRFTISRDNSKNTLYLQMNSLRAEDTAVYYCAKHERGSGYYVTPPAGAFDIWGQGTMVTVSS VL: AQSELTQPASVAGSPGQSITISCTGTSSDVGLYNFVSWYQQHPGKAPKLMIYDVSRRPSGVSNRFSASKSGTRASLTVSGLQAEDEADYYCSSYAGSNNYVFGTGTKVTVLG | 8.78 nM | 0.00153 s⁻¹ | 175000 M⁻¹ s⁻¹ | 10.9 nM | –
M0136-E10 (Fab, V domains shown) VH: EVQLLESGGGLVQPGGSLRLSCAASGFTFSPYNMAWVRQAPGKGLEWVSSIWPSGGRTRYADSVKGRFTISRDNSKNTLYLQMNSLRAEDTAVYYCAKGVRSSGLLERGRVYDAFDIWGQGTMVTVSS VL: DIQMTQSPGTLSLSPGERATLSCRASQSVTTFLAWYQRKPGQAPRLLIYGASSRAADIPDRFSGSGSGTDFTLTISRLEPEDLAVYYCQQYRFSPPTFGPGTTVDIRR | 9.66 nM | 0.00106 s⁻¹ | 110000 M⁻¹ s⁻¹ | – | 22 nM
M0139-E12 (Fab, V domains shown) VH: EVQLLESGGGLVQPGGSLRLSCAASGFTFSWYSMNWVRQAPGKGLEWVSSIGPSGGGTKYADSVKGRFTISRDNSKNTLYLQMNSLRAEDTAVYYCASRGQRKQWLPPNGAFDIWGQGTMVTVSS VL: DIQMTQSPSSVSASVGDRVTMTCRASRGISNWLAWYQQKPGKAPELLIHSASTLHAGVPSRFSGSGSGTDFTLTISSLQPGDFATYYCQEGNSFPYTFGQGTNLQIKR | 1.87 nM | 0.000233 s⁻¹ | 125000 M⁻¹ s⁻¹ | 2.9 nM | –
